In paper PMC5080440:

Experiments:
[1] = target: TagRFP-T-CENP-C with the talin rod domain at the C terminus (C-terminal CENP-C-TR control reporter) (Drosophila melanogaster | chicken) (UniProt P54939); experiment: quantitative two-colour fluorescence imaging of recruitment to kinetochores in live cells; S2 cells co-expressing VH-EGFP and TagRFP-T-CENP-C-TR; 25 uM colchicine (unattached kinetochores, low/no force); VH-EGFP to TagRFP-T ratio divided by the correction ratio from TagRFP-T-CENP-C-EGFP; 25 °C
[2] = target: TagRFP-T-CENP-C with the talin rod domain inserted into the middle (internal CENP-C-TR reporter) (Drosophila melanogaster | chicken) (UniProt P54939); experiment: as above
[3] = target: TagRFP-T-CENP-C with the talin rod domain inserted into the middle (internal CENP-C-TR reporter) (Drosophila melanogaster | chicken) (UniProt P54939); experiment: quantitative two-colour fluorescence imaging of recruitment to kinetochores in live cells; S2 cells co-expressing VH-EGFP and TagRFP-T-CENP-C-TR; metaphase cells, 0.1% DMSO (bioriented kinetochores, under force); VH-EGFP to TagRFP-T ratio divided by the correction ratio from TagRFP-T-CENP-C-EGFP; 25 °C

stoichiometry N (VH molecules per TR) [1]: 0.75 | stoichiometry N (VH-EGFP molecules per TR) [2]: 0.9 | stoichiometry N (VH molecules per CENP-C-TR) [3]: 1.3
B1: vinculin head domain (aa 1-258) fused to EGFP (domain or fragment)
chain: MPVFHTRTIESILEPVAQQISHLVIMHEEGEVDGKAIPDLTAPVSAVQAAVSNLVRVGKETVQTTEDQILKRDMPPAFIKVENACTKLVRAAQMLQADPYSVPARDYLIDGSRGILSGTSDLLLTFDEAEVRKIIRVCKGILEYLTVAEVVETMEDLVTYTKNLGPGMTKMAKMIDERQQELTHQEHRVMLVNSMNTVKELLPVLISAMKIFVTTKNTKSQGIEEALKNRNFTVEKMSAEINEIIRVLQLTSWDEDAW
